Measured values reported in IntAct's records for PubMed 9082982.

Target: sap18_drome Bin1 (UniProt Q9VEX9)
Sequence (Q9VEX9 whole entry): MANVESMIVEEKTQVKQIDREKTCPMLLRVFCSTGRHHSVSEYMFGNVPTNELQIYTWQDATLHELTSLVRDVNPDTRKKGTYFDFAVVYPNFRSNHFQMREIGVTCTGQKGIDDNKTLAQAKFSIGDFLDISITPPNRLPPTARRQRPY

Chain of Cell division control protein 42 homolog (Homo sapiens), P60953 D118A (P60953 whole entry D118A): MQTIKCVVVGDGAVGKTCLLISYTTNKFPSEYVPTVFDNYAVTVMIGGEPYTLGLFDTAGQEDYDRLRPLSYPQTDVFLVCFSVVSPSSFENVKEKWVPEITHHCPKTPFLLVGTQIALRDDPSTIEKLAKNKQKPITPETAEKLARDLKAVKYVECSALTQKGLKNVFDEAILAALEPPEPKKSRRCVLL
Chain of Cell division control protein 42 homolog (Homo sapiens), P60953 G12V (P60953 whole entry G12V): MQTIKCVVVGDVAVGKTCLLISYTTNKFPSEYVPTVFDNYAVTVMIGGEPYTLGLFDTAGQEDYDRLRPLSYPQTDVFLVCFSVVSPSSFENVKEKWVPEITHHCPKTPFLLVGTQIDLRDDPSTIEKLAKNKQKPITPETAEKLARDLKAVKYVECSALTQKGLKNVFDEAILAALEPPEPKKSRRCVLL

With “Cell division control protein 42 homolog (Homo sapiens), P60953 D118A” as the substance, how does the “effect of a mutation on the interaction” value read?
Its value is “disrupting interaction”.

How did the “effect of a mutation on the interaction” value turn out when “Cell division control protein 42 homolog (Homo sapiens), P60953 G12V” was run?
The value was “increasing interaction”.
